A word on the Kd: it is the concentration at which binding is half-saturated.

Consider two molecules from patent US20220235144A1 (QILU PUGET SOUND BIOTHERAPEUTICS, published 2022).

The target in assay [1] is T1, hSIRPαV1D1 with histidine tag (human, UniProt P78324 31-147).
T1 construct: analyte of the Biacore experiments; also called first immunoglobulin-like domain of human SIRPα variant V1; not shown: histidine tag
Description: SPR (Biacore 3000), IgG captured on anti-human IgG, His-tagged D1 analyte. The source says:
(§1) Goat anti-human IgG capture antibody (Jackson Laboratories; 109-005-098) was immobilized on the four flow cells in each sensor chip using standard amine coupling chemistry. About 8000 resonance units (RU) of this antibody was immobilized on each flow cell. Flow cells 2, 3, and 4 were used to analyze captured anti-SIRPα antibodies (about 250 to 300 RU were captured on each of flow cells 2, 3, and 4), while flow cell 1 was used as the reference flow cell. The analytes tested were hSIRPαV1D1, hSIRPαV2D1, cynomolgus monkey SIRPαV1D1 (cSIRPαV1D1), cSIRPαV2D1, hSIRPβ1D1, and hSIRPγD1, each of which also included a histidine tag. The sequences of cSIRPαV1D1 and cSIRPαV2D2 are provided in SEQ ID NOs: 143 and 142, respectively. To avoid confusion, the differences between the amino acid sequences of cSIRPαV1D1 and cSIRPαV2D1 are not the same as the differences between the amino acid sequences of hSIRPαV1D1 and hSIRPαV2D1. […] The amino acid sequence of hSIRPβ1D1 can be found in amino acids 30-148 of SEQ ID NO: 144, and the amino acid sequence of hSIRPγD1 can be found in amino acids 31-149 of SEQ ID NO: 141.
(§2) Generally, concentrations from about 0.1×KD to about 10×KD are appropriate for kinetic analysis. From one to six different concentrations were evaluated for each antibody:analyte interaction, depending on the comparisons to be made in an individual experiment. All analyte dilutions were prepared in HPS-EP buffer. Multiple blank (running buffer) injections were run and used to assess and subtract system artifacts. The association phase and dissociation phase for all analyte concentrations were monitored for 180 seconds and 300 seconds, respectively, at a flow rate of 50 μL/min. Between antibody samples, the surfaces of the flow cells were regenerated with 10 mM glycine, pH 1.5 using two injections, each lasting 12 seconds at a flow rate of 50 μL/min.
(§3) The data were analyzed using BIAevaluation software (Biacore, General Electric (GE)). The data was fit using the 1:1 Langmuir model.
(In general: Surface plasmon resonance follows binding to a sensor surface in real time, without labels.)

In assay [2] the target is T2, hSIRPαV2D1 with histidine tag (human).
T2 construct: analyte of the Biacore experiments; also called first immunoglobulin-like domain of human SIRPα variant V2; not shown: histidine tag
Described as above.
From the text: as §1, §2, §3

Assay [3] deals with T3, cSIRPαV1D1 with histidine tag (cynomolgus monkey (Macaca fascicularis), UniProt Q5TFQ8 30-146 (human entry)).
T3 construct: also called cynomolgus monkey SIRPαV1D1; not shown: histidine tag
T3 chain: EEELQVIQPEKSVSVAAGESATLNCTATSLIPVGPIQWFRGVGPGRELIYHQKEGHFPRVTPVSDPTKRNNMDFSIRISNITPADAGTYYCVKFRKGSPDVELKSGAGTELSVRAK
The description is as above.
From the text: as §1, §2, §3

In assay [4] the target is T4, cSIRPαV2D1 with histidine tag (cynomolgus monkey (Macaca fascicularis), UniProt Q5TFQ8 30-146 (human entry)).
T4 construct: also called cynomolgus monkey SIRPαV2D1; not shown: histidine tag
T4 chain: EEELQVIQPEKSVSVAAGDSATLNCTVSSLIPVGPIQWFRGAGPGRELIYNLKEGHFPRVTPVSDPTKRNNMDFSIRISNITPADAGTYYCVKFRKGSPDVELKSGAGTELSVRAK
Described as above.
From the text: as §1, §2, §3

Assay [5] has as its target T5, hSIRPβ1D1 with histidine tag (human, UniProt O00241 30-148).
T5 construct: analyte of the Biacore experiments; also called hSIRPβD1; not shown: histidine tag
The description is as above.
From the text: as §1, §2, §3

In assay [6] the target is T6, hSIRPγD1 with histidine tag (human, UniProt Q9P1W8 31-149).
T6 construct: also called first immunoglobulin-like domain of human SIRP Gamma; not shown: histidine tag
The description is as above.
From the text: as §1, §2, §3

Assay [7] addresses T7, hSIRPαV2 expressed on the cell surface (human, UniProt P78324 31-504).
T7 construct: whole, on cells; also called human SIRPα variant V2
Description: FACS competition on EXPI293 cells stably expressing hSIRPαV2: biotinylated hCD47:Fc (2.5 µg/ml) mixed with serial dilutions of the antibody, bound hCD47:Fc detected with streptavidin-PE (MFI); blocked ligand: hCD47:Fc. The method, then: (§4) The x axes show the antibody concentration in μg/ml. The y axes show mean fluorescence intensity (MFI) at about 572 nm (due to binding of biotinylated CD47:Fc, detected by a streptavidin-phycoerythrin conjugate).
(§5) Some of the anti-SIRPα antibodies described above were tested in vitro for their ability to inhibit binding of CD47 to hSIRPαV1 or hSIRPαV2 expressed on the surface of EXPI293™ cells stably transfected with DNA encoding these proteins. Briefly, stable transfectants expressing hSIRPαV1 or hSIRPαV2 were seeded into 96-well microtiter plates. […] After 30 minutes incubation, cells were washed, streptavidin-phycoerythrin (streptavidin-PE) was added, and cells were subjected to FACS to detect bound hCD47:Fc. Results were reported as a mean fluorescence intensity (MFI) using FlowJo software (FLOWJO, L.L.C., Ashland, Oreg., USA). FIGS. 4 and 5 show the MFI detected on the y axes of both panels and the antibody concentration on the x axes of both panels.

In assay [8] the target is T8, hSIRPαV1 expressed on the cell surface (human, UniProt P78324 31-504).
T8 construct: also called human SIRPα variant V1
Description: FACS competition on EXPI293 cells stably expressing hSIRPαV1: biotinylated hCD47:Fc (2.5 µg/ml) mixed with serial dilutions of the antibody, bound hCD47:Fc detected with streptavidin-PE (MFI); blocked ligand: hCD47:Fc. The method, then: as §4, §5

The target of assay [9] is T1, hSIRPαV1D1 with histidine tag. Description: SPR (Biacore 3000), IgG captured, single analyte concentration 50 nM. As for the experimental part: (§6) Briefly, biosensor analysis was conducted at 25° C. in an HPS-EP buffer (10 mM HEPES, 150 mM NaCl, 3 mM EDTA, 0.005% polysorbate 20, 0.1% bovine serum albumin, pH 7.4) using a Biacore 3000 optical biosensor equipped with a CM5 sensor chip according to the manufacturer's protocol. The auto sampler was maintained at ambient temperature. Goat anti-human IgG capture antibody (Jackson Laboratories; 109-005-098) was immobilized on the four flow cells in each sensor chip using standard amine coupling chemistry. About 8000 resonance units (RU) of this antibody was immobilized on each flow cell. Flow cells 2, 3, and 4 were used to analyze captured anti-SIRPα antibodies (about 250 to 300 RU were captured on each of flow cells 2, 3, and 4), while flow cell 1 was used as the reference flow cell. The analytes tested were hSIRPαV1D1, hSIRPαV2D1, cynomolgus monkey SIRPαV1D1 (cSIRPαV1D1), cSIRPαV2D1, hSIRPβ1D1, and hSIRPγD1, each of which also included a histidine tag. The sequences of cSIRPαV1D1 and cSIRPαV2D2 are provided in SEQ ID NOs: 143 and 142, respectively. To avoid confusion, the differences between the amino acid sequences of cSIRPαV1D1 and cSIRPαV2D1 are not the same as the differences between the amino acid sequences of hSIRPαV1D1 and hSIRPαV2D1. […]
(§7) In a separate experiment, KDs of additional variants of Ab11_G4 and Ab24_G4 were determined for binding to hSIRPαV1D1 and hSIRPαV2D1. […]

The target of assay [10] is T2, hSIRPαV2D1 with histidine tag. The description is as above. The method, then:
as §6, §7

T1 sequence (P78324 31-147 limits assumed): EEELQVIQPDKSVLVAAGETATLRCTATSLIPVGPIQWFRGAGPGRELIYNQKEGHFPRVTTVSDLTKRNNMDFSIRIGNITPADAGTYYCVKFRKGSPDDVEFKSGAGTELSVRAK
T2 sequence (chain, as listed by the source limits assumed): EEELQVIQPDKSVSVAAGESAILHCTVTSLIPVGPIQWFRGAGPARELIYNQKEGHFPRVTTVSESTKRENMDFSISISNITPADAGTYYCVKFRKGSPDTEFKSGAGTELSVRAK
T7 sequence (P78324 other isoform, or with tags, fused parts or gaps limits assumed): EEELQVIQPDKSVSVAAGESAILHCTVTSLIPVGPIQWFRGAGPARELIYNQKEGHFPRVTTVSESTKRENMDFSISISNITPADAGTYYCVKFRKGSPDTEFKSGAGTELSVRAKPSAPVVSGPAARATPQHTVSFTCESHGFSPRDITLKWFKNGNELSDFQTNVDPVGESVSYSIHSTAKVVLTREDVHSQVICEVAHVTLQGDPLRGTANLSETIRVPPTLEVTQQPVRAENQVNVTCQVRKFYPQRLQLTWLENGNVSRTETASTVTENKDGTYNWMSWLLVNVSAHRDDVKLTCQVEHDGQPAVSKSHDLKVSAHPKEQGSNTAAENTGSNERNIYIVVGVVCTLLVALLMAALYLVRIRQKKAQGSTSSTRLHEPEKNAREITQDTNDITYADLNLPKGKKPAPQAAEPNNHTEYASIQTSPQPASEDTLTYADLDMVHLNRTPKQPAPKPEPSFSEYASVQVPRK
T5 sequence (O00241 30-148): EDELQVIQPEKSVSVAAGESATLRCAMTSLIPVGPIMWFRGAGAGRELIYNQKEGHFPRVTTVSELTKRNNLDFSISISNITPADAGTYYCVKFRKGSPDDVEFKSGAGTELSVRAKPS
T8 sequence (P78324 31-504): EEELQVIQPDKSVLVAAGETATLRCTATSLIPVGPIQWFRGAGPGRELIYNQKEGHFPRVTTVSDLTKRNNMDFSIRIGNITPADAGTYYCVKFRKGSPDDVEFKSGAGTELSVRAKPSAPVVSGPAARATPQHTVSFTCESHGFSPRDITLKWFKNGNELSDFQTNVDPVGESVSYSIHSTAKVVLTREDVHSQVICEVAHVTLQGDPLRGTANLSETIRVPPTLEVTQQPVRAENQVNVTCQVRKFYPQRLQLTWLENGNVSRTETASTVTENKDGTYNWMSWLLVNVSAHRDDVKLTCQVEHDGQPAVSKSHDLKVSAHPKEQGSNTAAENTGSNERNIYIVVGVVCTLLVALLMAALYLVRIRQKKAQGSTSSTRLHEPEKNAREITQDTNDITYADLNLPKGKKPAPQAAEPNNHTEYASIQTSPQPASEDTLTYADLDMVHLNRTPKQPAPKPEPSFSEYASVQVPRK
T6 sequence (Q9P1W8 31-149): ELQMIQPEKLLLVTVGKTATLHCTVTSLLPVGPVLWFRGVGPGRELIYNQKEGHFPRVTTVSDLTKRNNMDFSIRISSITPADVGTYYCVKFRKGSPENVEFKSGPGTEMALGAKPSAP

B1: Ab1_G4 (antibody, human IgG4 S228P, kappa, V domains shown)
VH: EVQLVESGGGLVKPGGSLRLSCAASGFTFSSYVMSWVRQTPGKGLEWVATISSGGTYTYYPSSVKGRFTLSRDNAKNSLYLQMNSLRAEDTAVYYCASSLTGSSFDYWGQGTTVTVSS
VL: DIVLTQSPASLAVSLGERATISCRASESVDLYGTSFMHWYQQKPGQPPKLLIYRASNLESGVPDRFSGSGSRTDFTLTINPLQAEDVATYYCHQSSDELPWTFGGGTKVEIKR
notes: human IgG4 format, kappa light chain, made in EXPICHO cells
For the molecule B1, the Kd in assay [1] is 67.9 nM; in [2], 3.12 nM; in [3], 36.4 nM; in [4] it was around 399 nM; in assay [5] it was 1.39 nM; in [6], 244 nM. Besides, the results for the “IC50 (read off the curve)” value in [7] and in [8] were around 0.2 µg/mL and around 0.6 µg/mL, respectively.

B2: Ab24_G1AAA (antibody, human IgG1, kappa, L234A L235A)
heavy: EVQLVESGGGLVKPGGSLRLSCAASGFTFSSYVMSWVRQTPGKGLEWVATISSGGTYTYYPDSVKGRFTLSRDNAKNSLYLQMNSLRAEDTAVYYCASQLTGSEFDYWGQGTTVTVSSASTKGPSVFPLAPSSKSTSGGTAALGCLVKDYFPEPVTVSWNSGALTSGVHTFPAVLQSSGLYSLSSVVTVPSSSLGTQTYICNVNHKPSNTKVDKKVEPKSCDKTHTCPPCPAPEAAGGPSVFLFPPKPKDTLMISRTPEVTCVVVDVSHEDPEVKFNWYVDGVEVHNAKTKPREEQYNSTYRVVSVLTVLHQDWLNGKEYKCKVSNKALAAPIEKTISKAKGQPREPQVYTLPPSREEMTKNQVSLTCLVKGFYPSDIAVEWESNGQPENNYKTTPPVLDSDGSFFLYSKLTVDKSRWQQGNVFSCSVMHEALHNHYTQKSLSLSPGK
light: DIVLTQSPASLAVSLGERATISCRASESVDLYGTSFMHWYQQKPGQPPKLLIYRASNLESGVPDRFSGSGSRTDFTLTINPLQAEDVATYYCHQSSDELPWTFGGGTKVEIKRTVAAPSVFIFPPSDEQLKSGTASVVCLLNNFYPREAKVQWKVDNALQSGNSQESVTEQDSKDSTYSLSSTLTLSKADYEKHKVYACEVTHQGLSSPVTKSFNRGEC
notes: also called Ab24_AAA; 24_AAA
Turning to B2, the Kd stood at 19.4 nM in [9] and 1.19 nM in [10].
